In data set [1] the test system is T1, Nc1nc(O)nc(O)n1.
T1 construct: full length, N-terminal His-tag (pETCC2, from pET14b), expressed in E. coli BL21(DE3); tag cut with thrombin for crystals; homotetramer ~210 kDa; Zn enzyme
The experiment in a line: purified protein. The conditions noted are these: 200 mM sodium phosphate pH 7.5, glycerol, 301 K, 28.0 °C. In kind it is biochemical, Pseudomonas sp. ADP.

The test system of data set [2] is Nc1nc(O)nc(O)n1. Description: purified protein. The following applies: 200 mM sodium phosphate pH 7.5, glycerol, 301 K, 28.0 °C.

This passage reports Km, kcat and kcat/Km results from PMC4577212, “X-Ray Structure and Mutagenesis Studies of the N-Isopropylammelide Isopropylaminohydrolase, AtzC” (PLoS ONE, 2015).

For “AtzC (N-isopropylammelide isopropylaminohydrolase) (Pseudomonas sp. ADP; D188A)”, in data set [1], the Michaelis constant (Km) (usually the substrate concentration at which the rate is half of its maximum) worked out at 2200 ± 200 µM; the catalytic constant (kcat) – broadly, the maximal rate divided by the concentration of active sites – came out at 106 ± 11.4 s⁻¹; the kcat/Km (in general, the second-order rate constant that governs catalysis at low substrate concentration) stood at 49000 M⁻¹ s⁻¹.

As to “AtzC (N-isopropylammelide isopropylaminohydrolase) (Pseudomonas sp. ADP; D188N)”, the Km in data set [2] amounted to 1900 ± 500 µM.

Regarding “AtzC (N-isopropylammelide isopropylaminohydrolase) (Pseudomonas sp. ADP; D303N)”, in data set [1], the Km is 6100 ± 600 µM, the catalytic constant (kcat) stood at 90.4 ± 8.9 s⁻¹ and the catalytic efficiency (kcat/Km) worked out at 15000 M⁻¹ s⁻¹.

Regarding “AtzC (N-isopropylammelide isopropylaminohydrolase) (Pseudomonas sp. ADP; H219A)”, in data set [1], the Michaelis constant (Km) was 1600 ± 400 µM, the catalytic constant (kcat) is 16.8 ± 4 s⁻¹ and the kcat/Km was determined as 11000 M⁻¹ s⁻¹.

On to “AtzC (N-isopropylammelide isopropylaminohydrolase) (Pseudomonas sp. ADP; K65A)”, for which, in data set [1], the Michaelis-Menten constant (Km) came to 6100 ± 600 µM, the kcat amounted to 778 ± 79.7 s⁻¹ and the specificity constant (kcat/Km) stood at 130000 M⁻¹ s⁻¹.

“AtzC (N-isopropylammelide isopropylaminohydrolase) (Pseudomonas sp. ADP; K65R)”: in data set [1], the Michaelis-Menten constant (Km) came to 2400 ± 300 µM, the catalytic constant (kcat) came out at 332 ± 34.3 s⁻¹ and the specificity constant (kcat/Km) stood at 140000 M⁻¹ s⁻¹.

As to “AtzC (N-isopropylammelide isopropylaminohydrolase) (Pseudomonas sp. ADP; N304A)”, in data set [1], the Km came out at 4200 ± 200 µM, the kcat was determined as 29.3 ± 1.7 s⁻¹ and the specificity constant (kcat/Km) worked out at 7000 M⁻¹ s⁻¹.

For the substance “AtzC (N-isopropylammelide isopropylaminohydrolase) (Pseudomonas sp. ADP; N304D)”, in data set [1], the Michaelis constant (Km) came out at 25000 ± 4500 µM, the turnover number (kcat) turned out to be 189 ± 34 s⁻¹ and the kcat/Km came to 7600 M⁻¹ s⁻¹.

Consider “AtzC (N-isopropylammelide isopropylaminohydrolase) (Pseudomonas sp. ADP; Q160A)”, for which, in data set [1], the Michaelis-Menten constant (Km) stood at 1800 ± 300 µM, the kcat is 23 ± 3.5 s⁻¹ and the kcat/Km was found to be 13000 M⁻¹ s⁻¹.

For the substance “AtzC (N-isopropylammelide isopropylaminohydrolase) (Pseudomonas sp. ADP; Q160E)”, in data set [1], the Michaelis constant (Km) was 1300 ± 100 µM, the catalytic constant (kcat) was 10.4 ± 0.5 s⁻¹ and the kcat/Km came out at 8100 M⁻¹ s⁻¹.
